Patent US20250074974A1 (KANAPH THERAPEUTICS, published 2025)
Each block holds one binder with its values, some of them ahead of it.

Biological target: T1, human VEGF165 protein (human, UniProt P15692-4 27-191)
T1 construct: Immobilised on the ELISA plate
Experiment: ELISA, human VEGF165 immobilised on plate
Text: Next, the anti-human immunoglobulin G antibody and the anti-horseradish peroxidase (HRP) antibody were sequentially allowed to bind.

T1 sequence (P15692 other isoform, or with tags, fused parts or gaps limits assumed): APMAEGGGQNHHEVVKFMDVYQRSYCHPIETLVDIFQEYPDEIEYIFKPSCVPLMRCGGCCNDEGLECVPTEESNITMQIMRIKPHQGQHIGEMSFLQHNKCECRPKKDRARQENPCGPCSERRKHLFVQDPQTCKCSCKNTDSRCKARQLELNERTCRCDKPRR

binding result: binds
B1: PRO237 (bispecific antibody, human IgG1, kappa, L234A L235A, N297G)
heavy: EVQLVQSGAEVKKPGASVKVSCKASGYTFTGYYINWVRQAPGQGLEWMGIISPNQGTTGYAQKFQGRVTMTRDTSISTAYMELSSLRSEDTAVYYCARGNYDHLDYWGQGTLVTVSSASTKGPSVFPLAPSSKSTSGGTAALGCLVKDYFPEPVTVSWNSGALTSGVHTFPAVIQSSGLYSLSSVVTVPSSSLGTQTYICNVNHKPSNTKVDKRVEPKSCDKTHTCPPCPAPEAAGGPSVFLFPPKPKDTLMISRTPEVTCVVVAVSHEDPEVKFNWYVDGVEVHNAKTKPREEQYGSTYRVVSVLTVLHQDWLNGKEYKCKVSNKALPAPIEKTISKAKGQPREPQVYTLPPSREEMTKNQVSLTCLVKGFYPSDIAVEWESNGQPENNYKTTPPVLDSDGSFFLYSKLTVDKSRWQQGNVFSCSVMHEALHNHYTQKSLSLSPGGGGGSGGGGSSDTGRPFVEMYSEIPEIIHMTEGRELVIPCRVTSPNITVTLKKFPLDTLIPDGKRIIWDSRKGFIISNATYKEIGLLTCEATVNGHLYKTNYLTHRQTNTIIDVVLSPSHGIELSVGEKLVLNCTARTELNVGIDFNWEYPSSKHQHKKLVNRDLKTQSGSEMKKFLSTLTIDGVTRSDQGLYTCAASSGLMTKKNSTFVRVHEK
light: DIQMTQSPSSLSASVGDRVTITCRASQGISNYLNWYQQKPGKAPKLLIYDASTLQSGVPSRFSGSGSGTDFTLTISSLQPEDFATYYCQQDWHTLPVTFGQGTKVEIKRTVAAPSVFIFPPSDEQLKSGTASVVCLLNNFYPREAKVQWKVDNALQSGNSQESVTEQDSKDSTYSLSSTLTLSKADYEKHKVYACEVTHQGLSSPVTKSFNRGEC
notes: Purified as a fusion protein dimer

binding result: binds
B2: PRO238 (bispecific antibody)
heavy: EVQLVESGGGLVQPGGSLRLSCAASGFSFTSSSVSWVRQAPGKGLEWVGLIYPYNGFNYYADSVKGRFTISADTSKNTAYLQMNSLRAEDTAVYYCARNALYGSGGYYAMDYWGQGTLVTVSSASTKGPSVFPLAPSSKSTSGGTAALGCLVKDYFPEPVTVSWNSGALTSGVHTFPAVIQSSGLYSLSSVVTVPSSSLGTQTYICNVNHKPSNTKVDKRVEPKSCDKTHTCPPCPAPEAAGGPSVFLFPPKPKDTLMISRTPEVTCVVVAVSHEDPEVKFNWYVDGVEVHNAKTKPREEQYGSTYRVVSVLTVLHQDWLNGKEYKCKVSNKALPAPIEKTISKAKGQPREPQVYTLPPSREEMTKNQVSLTCLVKGFYPSDIAVEWESNGQPENNYKTTPPVLDSDGSFFLYSKLTVDKSRWQQGNVFSCSVMHEALHNHYTQKSLSLSPGGGGGSGGGGSSDTGRPFVEMYSEIPEIIHMTEGRELVIPCRVTSPNITVTLKKFPLDTLIPDGKRIIWDSRKGFIISNATYKEIGLLTCEATVNGHLYKTNYLTHRQTNTIIDVVLSPSHGIELSVGEKLVLNCTARTELNVGIDFNWEYPSSKHQHKKLVNRDLKTQSGSEMKKFLSTLTIDGVTRSDQGLYTCAASSGLMTKKNSTFVRVHEK
light: DIQMTQSPSSLSASVGDRVTITCRASQDVSTAVAWYQQKPGKAPKLLIYSASFLYSGVPSRFSGSGSGTDFTLTISSLQPEDFATYYCQQSYATLPTFEQGTKVEIKRTVAAPSVFIFPPSDEQLKSGTASVVCLLNNFYPREAKVQWKVDNALQSGNSQESVTEQDSKDSTYSLSSTLTLSKADYEKHKVYACEVTHQGLSSPVTKSFNRGEC
notes: as for B1

binding result: binds
B3: PRO241 (bispecific antibody, IgG1)
chain: SDTGRPFVEMYSEIPEIIHMTEGRELVIPCRVTSPNITVTLKKFPLDTLIPDGKRIIWDSRKGFIISNATYKEIGLLTCEATVNGHLYKTNYLTHRQTNTIIDVVLSPSHGIELSVGEKLVLNCTARTELNVGIDFNWEYPSSKHQHKKLVNRDLKTQSGSEMKKFLSTLTIDGVTRSDQGLYTCAASSGLMTKKNSTFVRVHEKGGGGSDKTHTCPPCPAPEAAGGPSVFLFPPKPKDTLMISRTPEVTCVVVAVSHEDPEVKFNWYVDGVEVHNAKTKPREEQYGSTYRVVSVLTVLHQDWLNGKEYKCKVSNKALPAPIEKTISKAKGQPREPQVYTLPPSREEMTKNQVSLTCLVKGFYPSDIAVEWESNGQPENNYKTTPPVLDSDGSFFLYSKLTVDKSRWQQGNVFSCSVMHEALHNHYTQKSLSLSPGGGGGSGGGGSGGGGSEVQLVQSGAEVKKPGASVKVSCKASGYTFTGYYINWVRQAPGQGLEWMGIISPNQGTTGYAQKFQGRVTMTRDTSISTAYMELSSLRSEDTAVYYCARGNYDHLDYWGQGTLVTVSSGGGGSGGGGSGGGGSGGGGSDIQMTQSPSSLSASVGDRVTITCRASQGISNYLNWYQQKPGKAPKLLIYDASTLQSGVPSRFSGSGSGTDFTLTISSLQPEDFATYYCQQDWHTLPVTFGQGTKVEIK
notes: as for B1

binding result: binds
B4: PRO242 (bispecific antibody, IgG1)
chain: SDTGRPFVEMYSEIPEIIHMTEGRELVIPCRVTSPNITVTLKKFPLDTLIPDGKRIIWDSRKGFIISNATYKEIGLLTCEATVNGHLYKTNYLTHRQTNTIIDVVLSPSHGIELSVGEKLVLNCTARTELNVGIDFNWEYPSSKHQHKKLVNRDLKTQSGSEMKKFLSTLTIDGVTRSDQGLYTCAASSGLMTKKNSTFVRVHEKGGGGSDKTHTCPPCPAPEAAGGPSVFLFPPKPKDTLMISRTPEVTCVVVAVSHEDPEVKFNWYVDGVEVHNAKTKPREEQYGSTYRVVSVLTVLHQDWLNGKEYKCKVSNKALPAPIEKTISKAKGQPREPQVYTLPPSREEMTKNQVSLTCLVKGFYPSDIAVEWESNGQPENNYKTTPPVLDSDGSFFLYSKLTVDKSRWQQGNVFSCSVMHEALHNHYTQKSLSLSPGGGGGSGGGGSGGGGSEVQLVESGGGLVQPGGSLRLSCAASGFSFTSSSVSWVRQAPGKGLEWVGLIYPYNGFNYYADSVKGRFTISADTSKNTAYLQMNSLRAEDTAVYYCARNALYGSGGYYAMDYWGQGTLVTVSSGGGGSGGGGSGGGGSGGGGSDIQMTQSPSSLSASVGDRVTITCRASQDVSTAVAWYQQKPGKAPKLLIYSASFLYSGVPSRFSGSGSGTDFTLTISSLQPEDFATYYCQQSYATLPTFEQGTKVEIK
notes: as for B1

binding result: binds
B5: PRO236 (bispecific antibody, human IgG1, kappa, L234A L235A, N297G)
heavy: EVQLVESGGGLVQPGGSLRLSCAASGFTFSSYWMTWVRQAPGKGLEWVSSIKIKPDGYAASVKGRFTISRDNSKNTLYLQMNSLRAEDTAVYYCARLFYQYFARMDYWGQGTLVTVSSASTKGPSVFPLAPSSKSTSGGTAALGCLVKDYFPEPVTVSWNSGALTSGVHTFPAVLQSSGLYSLSSVVTVPSSSLGTQTYICNVNHKPSNTKVDKRVEPKSCDKTHTCPPCPAPEAAGGPSVFLFPPKPKDTLMISRTPEVTCVVVAVSHEDPEVKFNWYVDGVEVHNAKTKPREEQYGSTYRVVSVLTVLHQDWLNGKEYKCKVSNKALPAPIEKTISKAKGQPREPQVYTLPPSREEMTKNQVSLTCLVKGFYPSDIAVEWESNGQPENNYKTTPPVLDSDGSFFLYSKLTVDKSRWQQGNVFSCSVMHEALHNHYTQKSLSLSPGGGGGSGGGGSSDTGRPFVEMYSEIPEIIHMTEGRELVIPCRVTSPNITVTLKKFPLDTLIPDGKRIIWDSRKGFIISNATYKEIGLLTCEATVNGHLYKTNYLTHRQTNTIIDVVLSPSHGIELSVGEKLVLNCTARTELNVGIDFNWEYPSSKHQHKKLVNRDLKTQSGSEMKKFLSTLTIDGVTRSDQGLYTCAASSGLMTKKNSTFVRVHEK
light: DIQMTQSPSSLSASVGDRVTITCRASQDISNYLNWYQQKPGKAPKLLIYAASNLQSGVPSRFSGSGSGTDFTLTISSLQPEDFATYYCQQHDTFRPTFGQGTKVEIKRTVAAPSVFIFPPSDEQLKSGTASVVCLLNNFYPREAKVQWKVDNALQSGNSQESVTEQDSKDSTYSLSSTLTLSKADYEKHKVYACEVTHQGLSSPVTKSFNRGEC
notes: as for B1
